Source: paper PMC5207070, “The Amino-terminal Domain of the Androgen Receptor Co-opts Extracellular Signal-regulated Kinase (ERK) Docking Sites in ELK1 Protein to Induce Sustained Gene Activation That Supports Prostate Cancer Cell Growth*^([image sbox.jpg])” (The Journal of Biological Chemistry, 2016)

Target: T1, purified full-length human AR (Abcam ab82609) (human, UniProt P10275 1-920)
T1 construct: androgen receptor, human, full length; also called Purified AR; AR polypeptide (ligand)
T1 sequence (looked up): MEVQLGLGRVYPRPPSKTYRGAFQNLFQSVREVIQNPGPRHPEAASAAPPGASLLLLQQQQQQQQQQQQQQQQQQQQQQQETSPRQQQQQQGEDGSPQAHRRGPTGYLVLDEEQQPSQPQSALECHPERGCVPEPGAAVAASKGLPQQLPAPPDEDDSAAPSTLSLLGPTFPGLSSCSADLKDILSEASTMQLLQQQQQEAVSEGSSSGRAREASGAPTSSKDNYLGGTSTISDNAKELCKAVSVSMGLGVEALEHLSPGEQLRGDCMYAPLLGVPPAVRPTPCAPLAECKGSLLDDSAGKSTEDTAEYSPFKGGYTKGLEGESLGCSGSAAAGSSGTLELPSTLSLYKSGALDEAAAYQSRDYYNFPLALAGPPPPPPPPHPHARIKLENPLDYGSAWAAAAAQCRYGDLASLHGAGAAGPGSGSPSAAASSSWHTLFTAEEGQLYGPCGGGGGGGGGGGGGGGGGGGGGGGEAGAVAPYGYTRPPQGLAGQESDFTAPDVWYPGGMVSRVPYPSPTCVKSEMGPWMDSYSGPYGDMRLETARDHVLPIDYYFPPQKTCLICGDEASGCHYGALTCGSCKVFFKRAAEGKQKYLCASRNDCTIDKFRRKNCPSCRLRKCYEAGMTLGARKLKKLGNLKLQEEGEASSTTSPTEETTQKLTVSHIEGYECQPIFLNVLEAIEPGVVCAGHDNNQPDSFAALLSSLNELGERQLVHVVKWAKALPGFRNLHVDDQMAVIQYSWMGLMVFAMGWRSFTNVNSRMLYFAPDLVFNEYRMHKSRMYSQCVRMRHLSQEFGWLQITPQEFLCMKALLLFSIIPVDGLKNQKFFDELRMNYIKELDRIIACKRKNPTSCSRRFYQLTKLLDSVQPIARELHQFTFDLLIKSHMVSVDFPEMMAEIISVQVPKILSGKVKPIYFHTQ
Assay: SPR; BIAcore 3000; AR immobilised on a CM5 chip by amine coupling; His-ELK1 (0-160 nM) or mutant ELK1 (100 nM) as analyte; HBS-N buffer; 1:1 Langmuir model; Kd = koff/kon
Details: both partners purified

Kd: 19 nM
B1: His-tagged ELK1 (natural protein, human, UniProt P19419 1-428, looked up)
chain: MDPSVTLWQFLLQLLREQGNGHIISWTSRDGGEFKLVDAEEVARLWGLRKNKTNMNYDKLSRALRYYYDKNIIRKVSGQKFVYKFVSYPEVAGCSTEDCPPQPEVSVTSTMPNVAPAAIHAAPGDTVSGKPGTPKGAGMAGPGGLARSSRNEYMRSGLYSTFTIQSLQPQPPPHPRPAVVLPSAAPAGAAAPPSGSRSTSPSPLEACLEAEEAGLPLQVILTPPEAPNLKSEELNVEPGLGRALPPEVKVEGPKEELEVAGERGFVPETTKAEPEVPPQEGVPARLPAVVMDTAGQAGGHAASSPEISQPQKGRKPRDLELPLSPSLLGGPGPERTPGSGSGSGLQAPGPALTPSLLPTHTLTPVLLTPSSLPPSIHFWSTLSPIAPRSPAKLSFQFPSSGSAQVHIPSISVDGLSTPVVLSPGPQKP
notes: ELK1, recombinant; Construct details are in the supplemental material; also called purified ELK1
